# Target: wild-type H3 A/Perth/16/2009 recombinant hemagglutinin (rHA) (influenza A virus, H3 A/Perth/16/2009)
# Assay: cross-linking
substance,measurement,value
wild-type H3 A/Perth/16/2009 recombinant hemagglutinin (rHA) (natural protein),percent cross-linked after 1 month at 25°C,72%
